Earlier results, collected in publication PMC7585440.

Assays:
LRP6 E1E2 (Homo sapiens) = LRP6 E1E2 (Homo sapiens) (UniProt O75581); test: biolayer interferometry
LRP6 E1 (Homo sapiens) = LRP6 E1 (Homo sapiens) (UniProt O75581); test: ITC
Chain of LRP6 E1 (Homo sapiens) (O75581 20-326): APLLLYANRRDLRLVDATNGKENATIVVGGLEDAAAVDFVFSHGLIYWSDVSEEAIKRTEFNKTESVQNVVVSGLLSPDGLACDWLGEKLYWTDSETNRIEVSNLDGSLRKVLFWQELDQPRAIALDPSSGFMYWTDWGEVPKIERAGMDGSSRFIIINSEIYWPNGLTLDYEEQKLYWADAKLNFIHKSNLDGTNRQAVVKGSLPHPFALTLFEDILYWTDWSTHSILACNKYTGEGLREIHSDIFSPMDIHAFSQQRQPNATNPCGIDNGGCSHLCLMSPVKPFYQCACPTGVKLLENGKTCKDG

Chain of LRP6 E1E2 (Homo sapiens) (O75581 20-630): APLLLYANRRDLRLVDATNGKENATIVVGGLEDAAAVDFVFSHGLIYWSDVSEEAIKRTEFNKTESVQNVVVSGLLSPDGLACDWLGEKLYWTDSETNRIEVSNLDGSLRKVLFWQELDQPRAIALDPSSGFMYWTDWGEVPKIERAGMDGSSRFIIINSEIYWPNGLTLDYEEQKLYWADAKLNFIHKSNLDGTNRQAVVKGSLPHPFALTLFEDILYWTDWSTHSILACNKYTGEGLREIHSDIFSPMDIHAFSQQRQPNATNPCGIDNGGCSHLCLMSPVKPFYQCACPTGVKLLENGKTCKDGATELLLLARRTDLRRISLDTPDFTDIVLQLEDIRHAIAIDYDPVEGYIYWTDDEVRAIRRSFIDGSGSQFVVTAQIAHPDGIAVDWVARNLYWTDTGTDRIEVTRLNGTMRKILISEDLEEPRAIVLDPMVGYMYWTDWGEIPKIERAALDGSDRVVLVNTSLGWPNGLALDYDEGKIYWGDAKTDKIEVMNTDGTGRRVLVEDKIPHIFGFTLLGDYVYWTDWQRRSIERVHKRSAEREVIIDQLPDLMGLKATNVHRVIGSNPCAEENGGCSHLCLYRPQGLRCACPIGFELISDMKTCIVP
Chain of SOST loop 2 peptide loop 2 (Q9BQB4 110-130): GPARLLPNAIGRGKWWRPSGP
Chain of SOST (Q9BQB4 24-213): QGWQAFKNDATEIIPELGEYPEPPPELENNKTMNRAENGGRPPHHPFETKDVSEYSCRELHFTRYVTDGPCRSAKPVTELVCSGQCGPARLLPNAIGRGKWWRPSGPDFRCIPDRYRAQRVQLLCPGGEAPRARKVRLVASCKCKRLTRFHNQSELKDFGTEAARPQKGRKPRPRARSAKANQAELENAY

SOST (from UniProt Q9BQB4)
Kd (LRP6 E1E2 (Homo sapiens)): 0.0068 µM

SOST loop 2 peptide loop 2 (from UniProt Q9BQB4)
Kd (LRP6 E1 (Homo sapiens)): 9 µM
